# B1: D529A/D530A/D531A triple mutation: D529A/D530A/D531A triple mutant of the ADD domain (MBP‐ADD in pulldown, mVenus‐ADD in cells) (protein)
# chain: RERLVYEVRQKCRNIEDICISCGSLNVTLEHPLFVGGMCQNCKNCFLECAYQYAAAGYQSYCTICCGGREVLMCGNNNCCRCFCVECVDLLVGPGAAQAAIKEDPWNCYMCGHKGTYGLLRRREDWPSRLQMFFANNHD
# modifications: left off: MBP, N-terminal, kept
# Test system: GST-TRD (TRD domain of MECP2)
# Assay: GST-pulldown of MBP-ADD
# Type: binding
# Settings: 1 μg each protein; 25 mM Tris/HCl pH 8, 200 mM KCl; 1 h, 6°C; SDS-PAGE
molecule,measurement,value
B1,pulldown of MBP-ADD by GST-TRD,reduced

# Source: publication PMC9798253 (Protein Science : A Publication of the Protein Society, 2023)
